# Measurements as given in patent US20200010571A1 (Janssen / Centocor, published 2020).
# Values joined by “and” are separate entries in the source; they are usually repeats but may differ in a detail not shown here. Equal values may be shown once.
# T1: rat TNF-α (rat, UniProt P16599 80-235)
# T1 sequence: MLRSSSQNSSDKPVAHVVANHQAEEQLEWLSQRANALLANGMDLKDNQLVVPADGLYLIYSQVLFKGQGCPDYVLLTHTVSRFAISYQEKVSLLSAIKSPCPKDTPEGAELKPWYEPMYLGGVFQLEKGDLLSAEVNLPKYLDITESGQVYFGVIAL
# T2: mouse TNF-α (mouse, UniProt P06804 80-235)
# T2 sequence: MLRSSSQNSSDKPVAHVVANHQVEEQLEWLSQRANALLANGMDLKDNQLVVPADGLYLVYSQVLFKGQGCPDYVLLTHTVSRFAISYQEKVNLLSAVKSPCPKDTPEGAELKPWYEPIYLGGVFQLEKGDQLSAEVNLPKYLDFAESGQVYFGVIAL
# T3: cynomolgus IL-17A (cynomolgus, UniProt Q16552 24-155 (human entry), limits assumed)
# T3 chain: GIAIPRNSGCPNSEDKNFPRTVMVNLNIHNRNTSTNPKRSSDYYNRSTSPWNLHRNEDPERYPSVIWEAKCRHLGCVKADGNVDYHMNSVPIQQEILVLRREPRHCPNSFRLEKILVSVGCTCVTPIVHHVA
# T4: mouse IL-17A (mouse, UniProt Q62386 26-158)
# T4 sequence: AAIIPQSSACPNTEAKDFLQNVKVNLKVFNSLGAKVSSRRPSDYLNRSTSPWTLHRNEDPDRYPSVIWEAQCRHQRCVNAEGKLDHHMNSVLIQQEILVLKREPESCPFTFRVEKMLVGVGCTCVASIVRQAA
# T5: rat IL-17A (rat, UniProt Q61453 18-150)
# T5 chain: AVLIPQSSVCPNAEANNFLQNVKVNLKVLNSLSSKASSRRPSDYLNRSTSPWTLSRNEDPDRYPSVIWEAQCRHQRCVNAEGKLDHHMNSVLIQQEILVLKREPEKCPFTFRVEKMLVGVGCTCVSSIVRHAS
# T6: recombinant human IL-17F (human, UniProt Q96PD4 31-163)
# T6 sequence: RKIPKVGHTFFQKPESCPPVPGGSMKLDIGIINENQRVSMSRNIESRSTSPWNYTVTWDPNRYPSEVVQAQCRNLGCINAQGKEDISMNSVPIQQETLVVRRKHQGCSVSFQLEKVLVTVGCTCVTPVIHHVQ
# Columns and labels:
# [1] = target: T7, recombinant human IL-17A/F heterodimer (human, UniProt Q16552 24-155; Q96PD4 31-163); assay: cell-based or functional assay
# [2] = target: T8, rhTNF-α (recombinant human, soluble) (human, UniProt P01375 77-233); assay: cell-based or functional assay
# [3] = target: T7, recombinant human IL-17A/F heterodimer; assay: cell-based or functional assay; remark: listed apart in the source
# [4] = target: protease-resistant form of human transmembrane TNF-α (lacks amino acids Val1 to Pro12) overexpressed by K2 … (human, UniProt P01375 1-233); assay: cell-based or functional assay
# [5] = target: T8, rhTNF-α (recombinant human, soluble); assay: cell-based or functional assay; remark: listed apart in the source
# rat TNF-α = target: T1, rat TNF-α; assay: SPR (Biacore 3000), mAb captured by anti-IgG Fc, antigen in solution
# mouse TNF-α = target: T2, mouse TNF-α; assay: as above
# [6] = target: T8, rhTNF-α (recombinant human, soluble); assay: SPR (Biacore 3000), mAb captured by anti-IgG Fc, antigen in solution, 25 C, 1:1 Langmuir
# [7] = target: T9, human IL-17A (recombinant) (human, UniProt Q16552 24-155); assay: competition ELISA: biotinylated rhIL-17A binding to plate-coated rhIL-17RA-Fc; Experiment 1; 95% CI 0.1171-0.1378
# T9 construct: Biotinylated in the IL-17RA ELISA; also called rhIL-17A
# [8] = target: T9, human IL-17A (recombinant); assay: competition ELISA: biotinylated rhIL-17A binding to plate-coated rhIL-17RA-Fc; Experiment 3; 95% CI 0.2415-0.2667
# [9] = target: native (endogenous) human TNF-α (human, UniProt P01375 77-233); assay: cell-based or functional assay
# cynomolgus TNF-α [10] = target: T10, cynomolgus TNF-α (cynomolgus, UniProt P79337 77-233); assay: SPR (Biacore 3000), mAb captured by anti-IgG Fc, antigen in solution, 1:1 Langmuir
# T10 construct: also called Cyno TNF-α
# [11] = target: T8, rhTNF-α (recombinant human, soluble); assay: cell-based or functional assay; remark: listed apart in the source
# [12] = target: T9, human IL-17A (recombinant); assay: competition ELISA: biotinylated rhIL-17A binding to plate-coated rhIL-17RA-Fc
# cynomolgus IL-17A [13] = target: T3, cynomolgus IL-17A; assay: cell-based or functional assay
# cynomolgus IL-17A [14] = target: T3, cynomolgus IL-17A; assay: cell-based or functional assay
# [15] = target: T9, human IL-17A (recombinant); assay: cell-based or functional assay
# [16] = target: T9, human IL-17A (recombinant); assay: cell-based or functional assay; remark: listed apart in the source
# cynomolgus TNF-α [17] = target: T10, cynomolgus TNF-α; assay: cell-based or functional assay
# mouse IL-17A = target: T4, mouse IL-17A; assay: SPR (Biacore 3000), mAb captured by anti-IgG Fc, antigen in solution, 1:1 Langmuir;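 also: run in PBS containing BSA and P20 at 25 °C, antigen injected at four dilutions, 3 min association, dissociation followed 20 min to 2 h, two independent experiments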
# rat IL-17A = target: T5, rat IL-17A; assay: as above
# cynomolgus IL-17A [18] = target: T3, cynomolgus IL-17A; assay: as above
# [19] = target: T9, human IL-17A (recombinant); assay: competition ELISA: biotinylated rhIL-17A binding to plate-coated rhIL-17RA-Fc; Experiment 2; 95% CI 0.1639-0.1853
# recombinant human IL-17F = target: T6, recombinant human IL-17F; assay: binding to rhIL-17A in the absence or presence of IL-17F
# [20] = target: T9, human IL-17A (recombinant); assay: SPR (Biacore 3000), mAb captured by anti-IgG Fc, antigen in solution, 25 C, 1:1 Langmuir
binder,measurement,setting,value
"mAb 8759 (bispecific anti-TNF-α/IL-17A antibody, IgG1, YTE) (bispecific antibody) heavy 1: not shown light 1: not shown heavy 2: QVQLLESGGGLVQPGGSLRLSCAASGFTFSSYAMSWVRQAPGKGLEWVSTISLTSGFTYYADSVKGRFTISRDNSKNTLYLQMNSLRAEDTAVYYCARQLTLDVWGQGTLVTVSSASTKGPSVFPLAPSSKSTSGGTAALGCLVKDYFPEPVTVSWNSGALTSGVHTFPAVLQSSGLYSLSSVVTVPSSSLGTQTYICNVNHKPSNTKVDKKVEPKSCDKTHTCPPCPAPELLGGPSVFLFPPKPKDTLYITREPEVTCVVVDVSHEDPEVKFNWYVDGVEVHNAKTKPREEQYNSTYRVVSVLTVLHQDWLNGKEYKCKVSNKALPAPIEKTISKAKGQPREPQVYTLPPSREEMTKNQVSLTCLVKGFYPSDIAVEWESNGQPENNYKTTPPVLDSDGSFLLYSKLTVDKSRWQQGNVFSCSVMHEALHNHYTQKSLSLSPGK light 2: QSVLTQPPSVSVAPGQTARISCSGDNLGDKYANWYQQKPGQAPVLVIYDDIDRPSGIPERFSGSNSGNTATLTISGTQAEDEADYYCGSYDFFLGMIVFGGGTKLTVLGQPKAAPSVTLFPPSSEELQANKATLVCLISDFYPGAVTVAWKADSSPVKAGVETTTPSKQSNNKYAASSYLSLTPEQWKSHRSYSCQVTHEGSTVEKTVAPTECS",IC50 (µg/mL); Inhibition of IL-17A/F mediated GROα production by NHDF; Experiment 1,[1],0.283 µg/mL
same,IC50 (µg/mL); Inhibition of IL-17A/F mediated GROα production by NHDF; Experiment 2,[1],0.46 µg/mL
same,IC50 (µg/mL); Inhibition of IL-17A/F mediated GROα production by NHDF; Experiment 3,[1],0.435 µg/mL
same,IC50 (nM); WEHI-164 cells cytotoxicity mediated by soluble rhTNF-α; Experiment 1,[2],1.2 nM
same,IC50 (nM); WEHI-164 cells cytotoxicity mediated by soluble rhTNF-α; Experiment 2,[2],1.73 nM
same,IC50 (nM); WEHI-164 cells cytotoxicity mediated by soluble rhTNF-α; Experiment 3,[2],0.478 nM
same,IC50 (µg/mL); Inhibition of IL-17A/F mediated IL-6 production by NHDF; Experiment 1,[3],0.117 µg/mL
same,IC50 (µg/mL); Inhibition of IL-17A/F mediated IL-6 production by NHDF; Experiment 2,[3],0.133 µg/mL
same,IC50 (µg/mL); Inhibition of IL-17A/F mediated IL-6 production by NHDF; Experiment 3,[3],0.102 µg/mL
same,"IC50 (nM); KYM-1D4 cells, cytotoxicity mediated by membrane bound human TNF-α; Experiment 1",[4],0.653 nM
same,"IC50 (nM); KYM-1D4 cells, cytotoxicity mediated by membrane bound human TNF-α; Experiment 2",[4],0.883 nM
same,"IC50 (nM); KYM-1D4 cells, cytotoxicity mediated by membrane bound human TNF-α; Experiment 3",[4],0.3 nM
same,"IC50 (nM); KYM-1D4 cells, cytotoxicity mediated by soluble rhTNF-α; Experiment 1",[5],0.13 nM
same,"IC50 (nM); KYM-1D4 cells, cytotoxicity mediated by soluble rhTNF-α; Experiment 2",[5],0.261 nM
same,"IC50 (nM); KYM-1D4 cells, cytotoxicity mediated by soluble rhTNF-α; Experiment 3",[5],0.147 nM
same,binding result,rat TNF-α,no binding (tested: up to 100 nM)
same,binding result,mouse TNF-α,no binding (tested: up to 100 nM)
same,Kd,[6],0.0232 nM and 0.0192 nM
same,koff,[6],4.07e-05 s⁻¹ and 3.76e-05 s⁻¹
same,kon,[6],1.75e+06 M⁻¹ s⁻¹ and 1.96e+06 M⁻¹ s⁻¹
same,IC50,[7],0.127 mg/L
same,IC50,[8],0.254 mg/L
same,"IC50 (nM); KYM-1D4 cells, cytotoxicity mediated by endogenous soluble TNF-α; Experiment 1",[9],0.283 nM
same,"IC50 (nM); KYM-1D4 cells, cytotoxicity mediated by endogenous soluble TNF-α; Experiment 2",[9],0.294 nM
same,"IC50 (nM); KYM-1D4 cells, cytotoxicity mediated by endogenous soluble TNF-α; Experiment 3",[9],0.143 nM
same,Kd,cynomolgus TNF-α [10],0.44 nM and 0.16 nM
same,koff,cynomolgus TNF-α [10],0.000114 s⁻¹
same,kon,cynomolgus TNF-α [10],259000 M⁻¹ s⁻¹ and 710000 M⁻¹ s⁻¹
same,fold of IC50 against the parental anti-TNF-α antibodies mAb 9809 and mAb 6696; rhTNF-α-induced cytotoxicity in WEHI-164 cells,[11],~3 fold
same,fold IC50 against the parental anti-IL-17A antibodies mAb 4782 and mAb 7206,[12],~3 fold
same,IC50 (µg/mL); Inhibition of cyno IL-17A mediated IL-6 production by NHDF; Experiment 3,cynomolgus IL-17A [13],0.0476 µg/mL
same,IC50 (µg/mL); Inhibition of cyno IL-17A mediated GROα production by NHDF; Experiment 3,cynomolgus IL-17A [14],0.142 µg/mL
same,IC50 (µg/mL); Inhibition of native IL-17A mediated GROα production by NHDF; Experiment 1,[15],0.0755 µg/mL
same,IC50 (µg/mL); Inhibition of native IL-17A mediated GROα production by NHDF; Experiment 2,[15],0.0692 µg/mL
same,IC50 (µg/mL); Inhibition of native IL-17A mediated GROα production by NHDF; Experiment 3,[15],0.0653 µg/mL
same,IC50 (µg/mL); Inhibition of native IL-17A mediated IL-6 production by NHDF; Experiment 1,[16],0.0478 µg/mL
same,IC50 (µg/mL); Inhibition of native IL-17A mediated IL-6 production by NHDF; Experiment 2,[16],0.038 µg/mL
same,IC50 (µg/mL); Inhibition of native IL-17A mediated IL-6 production by NHDF; Experiment 3,[16],0.0608 µg/mL
same,IC50 (nM); Inhibition of cyno TNF-α mediated cytotoxicity in WEHI-164 cells; Experiment 1,cynomolgus TNF-α [17],3.82 nM
same,IC50 (nM); Inhibition of cyno TNF-α mediated cytotoxicity in WEHI-164 cells; Experiment 2,cynomolgus TNF-α [17],14.9 nM
same,IC50 (nM); Inhibition of cyno TNF-α mediated cytotoxicity in WEHI-164 cells; Experiment 3,cynomolgus TNF-α [17],7.32 nM
same,Kd,mouse IL-17A,1.01 nM
same,koff,mouse IL-17A,0.00101 s⁻¹
same,kon,mouse IL-17A,999000 M⁻¹ s⁻¹
same,Kd,rat IL-17A,13.9 nM
same,koff,rat IL-17A,0.00274 s⁻¹
same,kon,rat IL-17A,197000 M⁻¹ s⁻¹
same,Kd,cynomolgus IL-17A [18],0.0265 nM and 0.0277 nM
same,koff,cynomolgus IL-17A [18],3.59e-05 s⁻¹ and 4.4e-05 s⁻¹
same,kon,cynomolgus IL-17A [18],1.35e+06 M⁻¹ s⁻¹ and 1.59e+06 M⁻¹ s⁻¹
same,IC50,[19],0.174 mg/L
same,binding result,recombinant human IL-17F,no binding
same,Kd,[20],0.0244 nM and 0.0389 nM
same,koff,[20],4.36e-05 s⁻¹ and 3.74e-05 s⁻¹
same,kon,[20],1.78e+06 M⁻¹ s⁻¹ and 961000 M⁻¹ s⁻¹
